Source: PMC3874396

Key:
[1] = molecular target: RNC^EspP-SRP complex (SRP with DACM-labeled Ffh(C235), loaded with RNC^EspP) (Escherichia coli | not stated) (UniProt P0AGD7); assay: FRET or BRET
[2] = molecular target: RNC^EspP-Hydro-SRP complex (SRP with DACM-labeled Ffh(C235), loaded with RNC^EspP-Hydro) (Escherichia coli | not stated) (UniProt P0AGD7); assay: FRET or BRET
[3] = molecular target: SRP with fluorescein-labeled Ffh(C421) (Escherichia coli) (UniProt P0AGD7); assay: […]

Row | Substance | Kd [1] [nM] | kon [1] [M⁻¹ s⁻¹] | Kd [2] [nM] | kon [2] [M⁻¹ s⁻¹] | Kd [3] [nM]
1 | BODIPY-FL (acceptor)-labeled FtsY(C487) (from UniProt P10121 1-497) (receptor) | 311 | 9200 | 300 | 15200 | 
2 | RNC^EspP (ribosome-nascent chain complex displaying the EspP signal sequence) (from UniProt Q7BSW5 56-88) |  |  |  |  | 13.6
